Reference: the supplement of paper PMC10567573

B1: ALKBH7 (parent)
chain: SVICRSLPEGMGPGESGQPPPAC
B2: FCHO1 (parent)
chain: FTSSPSPFSSSSPENVEDSGLDSP

Variants of: B1
Assay: protein stability index of a GFP-peptide fusion (GPS, HEK-293T) (PSI 1-6); higher = more stable
Conditions: c terminus: native
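Also: lentivirally expressed fusions sorted by FACS into six bins by GFP to DsRed ratio, PSI derived from sequencing read proportions per bin multiplied by bin number.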

Protein stability index: each site, then its substitutions
P8: H 2.94; E 2.46; G 2.19; I 1.65; M 2.93; A 2.08
S1: H 1.98; I 3.78; G 2.23; E 3.06; T 2.2; N 1.63; D 1.87; M 1.47; P 2.23; R 1.39
C4: S 1.82; Y 1.47; G 1.79; D 1.58; N 2.24; P 2.4; A 3.06; T 1.62; F 1.61; L 2.03; K 1.37; I 2.88; Q 2.83; H 2.29; W 2.62; R 1.72; V 1.63; M 1.75
V2: D 2.05; F 2.78; S 2.67; T 2.9; N 2.41; C 1.73; K 2.14; G 2.08; P 2.31; I 2.77; E 2.4; Q 2.26; H 1.78; M 2.57; A 2.4
R5: D 2.56; N 1.7; Q 2.04; S 2.65; E 2.46; C 2.28; A 1.88; G 2.09; I 1.44; L 1.66; M 1.8; Y 1.46; F 1.51; K 2.32; T 2.1; H 2.73; P 2.59
L7: F 2.35; A 2.32; V 1.99; S 2.14; Q 2.67; T 3.06; I 2.36; Y 1.67; C 2.05; D 2.98; R 1.85; M 1.67; E 2.16; H 1.63
S6: Y 2.25; C 2.03; Q 2.08; T 2.07; M 1.68; E 3.01; A 2.01; K 2.28; R 1.95; P 2.05; I 1.43; D 2.54; H 2.71; L 1.6
I3: E 2.88; K 1.65; F 1.66; L 1.6; V 1.84; M 1.43; N 2.23; Y 1.62; A 2.19; Q 1.49; S 2.51; H 3.61; R 2.64; P 2.4; T 1.92

Variants of: B2
Assay: as above
Conditions: c terminus: a fixed tail appended

Protein stability index, by site and new letter:
S11: W 2.39; E 2.18; A 2.05; K 1.86; V 1.77; L 1.63; G 1.33
N15: S 2.33; E 1.82; K 1.43; Q 1.81; C 2.24; A 2.13; R 1.71; P 2.95; T 2.04
P7: Q 1.86; D 3.19; L 1.91; H 2.12; C 1.56; M 2.1; T 2.38
G20: L 2.07; E 2.04; W 1.56; I 1.97; T 3.02; C 2.31; Q 1.99; N 1.98
S12: D 2.53; R 1.56; V 2.56; C 2.46; F 2.65; P 2.25; M 1.99; L 2.27
S10: F 2.09; W 2.7; Y 2.07; H 2; L 1.71; M 1.94; C 2.14; V 2.06; T 2.15; A 2.53; P 2.3; E 2.05
S23: V 1.56; M 1.68; R 1.79; N 1.78; G 1.81; F 2.18; E 1.88; C 1.68; T 1.8; I 1.91; K 2.17; Q 2.66
P24: F 1.89; I 1.96; N 1.81; T 2.08; Q 2.32; R 2.47; M 2.24; L 1.98; G 1.77
E17: Y 2.23; W 1.65; H 1.98; M 2.32; N 2.1; C 1.68
P5: H 2.23; M 2.02; V 2.17; I 1.81; T 1.69; C 1.96; R 2.08; G 2.06; K 2.31; L 1.91
S6: Y 2.19; W 2.44; Q 2.08; D 3.29; L 1.86; H 2.23; F 1.79
E14: R 1.61; K 2.1; N 2.14; W 2.78; C 1.69; P 1.94
F8: G 4.72; Q 4.95; M 4.53; Y 2.04; K 5.34; V 4.45; C 3.77; P 4.95; E 5.2; N 4.9; T 5.39
S19: D 1.9; R 2.39; Y 2.78; M 1.5; N 2.06; I 2.27; L 2.32; W 1.57
V16: K 1.9; W 2.16; M 1.68; A 2.47; I 2.25; C 2.44; R 2.08; N 1.86; H 2.27; D 2.39; E 1.81; F 1.75; S 2.15
D22: P 2.23; W 2.62; C 2.47; M 1.48; A 2; F 1.31; E 2.6; T 2.18; V 2.43; L 2.14; Y 2.42; G 1.86
P13: W 1.83; F 2.49; I 2.05; T 1.77; K 2.14; M 1.58; R 1.85; C 1.53; N 1.66; Q 2.39; G 1.93
S3: H 2.32; C 2.01; Y 2.85; W 2.61; A 2.26; P 2.52; T 1.87; V 2.05; K 3.48; Q 2.42; R 3.59
D18: Y 2.27; I 2.01; T 2.03; A 1.62; G 1.83; P 2.01; M 1.99; L 2.05
F1: Q 5.16; H 4.74; A 5.3; K 5.56; I 5.67; G 5.46; E 5.62; S 5.49; P 5.41; T 5.38; W 5.16
L21: D 2.06; E 1.95; P 2.14; K 2.02; A 1.49; M 2.84; F 2.07; W 1.7; Q 2.03; I 2.87; H 2.27
S4: A 1.71; R 1.42; P 3.53; V 1.8; N 2.06; L 2.31; Y 1.95; W 3.58
T2: R 5.01; G 2.71; K 5.53; F 4.58; H 2.02; Y 4.84; Q 1.58; A 2.26; L 3.48; E 5.36; P 2.65
S9: A 2.09; L 2.17; C 2.22; I 2.91; E 2.83; Y 2.45; P 3.79; M 2.02; R 1.76
